Test results reported in patent US20200283478A1 (Genentech, published 2020).
Bridge positions count the residues as written; N and C are the ends. Square brackets hold non-standard residues; d marks the D form. Primed or numbered codes have the meaning given here. hArg = N=C(N)NCCCC[C@H](N)C(=O)O; Hyp′ = 3-hydroxyproline

Experiments:
[1] = target: T1, proprotein convertase subtilisin/kexin type 9 (PCSK9) (human, UniProt Q8NBP7 31-692); assay: cell-based or functional assay
PCSK9Δhelix [2] = target: T2, PCSK9Δhelix (human, Chemically biotinylated in the phage ELISAs; the site is not given.); assay: phage competition ELISA against phage-displayed Pep2-8 (Φpep2-8)
T2 construct: construct M1-Q692 with engineered TEV site, cleaved by TEV; also called His-PCSK9Δhelix; open groove PCSK9Δhelix

PCSK9Δhelix [3] = target: T2, PCSK9Δhelix; assay: phage competition ELISA against phage-displayed K9gvpep4 (ΦK9gvpep4)
PCSK9Δhelix [4] = target: T2, PCSK9Δhelix; assay: Ab20 TR-FRET competition and SPR
[5] = target: T1, proprotein convertase subtilisin/kexin …; assay: phage spot ELISA; first of two rows with this extension
PCSK9Δhelix [6] = target: T2, PCSK9Δhelix; assay: as above
[7] = target: T1, proprotein convertase subtilisin/kexin …; assay: phage spot ELISA; second of two rows with this extension
PCSK9Δhelix [8] = target: T2, PCSK9Δhelix; assay: as above
PCSK9Δhelix [9] = target: T2, PCSK9Δhelix; assay: SPR
[10] = target: T3, PCSK9 (proprotein convertase subtilisin/kexin type 9), His-tagged, full-length (human, UniProt Q8NBP7 31-692); assay: TR-FRET competition; competitor EGF(A)-Fc binding to His-PCSK9
T3 construct: Captured by the His tag (SPR Methods 1 and 2), amine-coupled (Method 3), or His-tagged in TR-FRET; also called His-PCSK9

PCSK9Δhelix [11] = target: T4, PCSK9Δhelix (human, UniProt Q8NBP7 31-152; Q8NBP7 168-692); assay: TR-FRET competition; competitor Ab20 binding to His-PCSK9Δhelix
T4 construct: Made by TEV cleavage of human PCSK9 M1-Q692 with an engineered TEV site; The new N-terminus of the catalytic domain is S-A168; also called His-PCSK9Δhelix; PCSK9 lacking the P' helix

[12] = target: T3, PCSK9 (proprotein convertase …); assay: SPR, Method 2 (Biacore T100, NTA capture, single cycle kinetics)
PCSK9Δhelix [13] = target: T4, PCSK9Δhelix; assay: as above
[14] = target: T1, proprotein convertase subtilisin/kexin …; assay: SPR
[15] = target: T1, proprotein convertase subtilisin/kexin …; assay: TR-FRET competition (Table 11)
[16] = target: T5, His-tagged, full-length human PCSK9 (proprotein convertase subtilisin/kexin type 9) (human, UniProt A8T644 31-152; Q8NBP7 153-692); assay: TR-FRET competition; His-PCSK9 with EGF(A)-Fc as competitor ligand
T5 construct: also called His-PCSK9; C-terminal (His)8-tagged PCSK9

[17] = target: T6, PCSK9Δhelix (human PCSK9 lacking the P' helix, His-tagged) (human, UniProt Q8NBP7 31-152; Q8NBP7 168-692); assay: TR-FRET competition; His-PCSK9Δhelix with Ab20 as competitor ligand
T6 construct: Construct M1-Q692 with an engineered TEV site (Y166 and R167 deleted, ENLYFQS inserted between R165 and A168); also called His-PCSK9Δhelix; C-terminal (His)8-tagged PCSK9Δhelix
T6 sequence (Q8NBP7 31-152, stated change not applied, chain 1 of 2): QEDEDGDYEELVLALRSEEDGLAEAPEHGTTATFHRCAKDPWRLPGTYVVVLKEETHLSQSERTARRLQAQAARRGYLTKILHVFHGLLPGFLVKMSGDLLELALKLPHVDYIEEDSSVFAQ
T6 sequence (Q8NBP7 other isoform, or with tags, fused parts or gaps mutant, chain 2 of 2): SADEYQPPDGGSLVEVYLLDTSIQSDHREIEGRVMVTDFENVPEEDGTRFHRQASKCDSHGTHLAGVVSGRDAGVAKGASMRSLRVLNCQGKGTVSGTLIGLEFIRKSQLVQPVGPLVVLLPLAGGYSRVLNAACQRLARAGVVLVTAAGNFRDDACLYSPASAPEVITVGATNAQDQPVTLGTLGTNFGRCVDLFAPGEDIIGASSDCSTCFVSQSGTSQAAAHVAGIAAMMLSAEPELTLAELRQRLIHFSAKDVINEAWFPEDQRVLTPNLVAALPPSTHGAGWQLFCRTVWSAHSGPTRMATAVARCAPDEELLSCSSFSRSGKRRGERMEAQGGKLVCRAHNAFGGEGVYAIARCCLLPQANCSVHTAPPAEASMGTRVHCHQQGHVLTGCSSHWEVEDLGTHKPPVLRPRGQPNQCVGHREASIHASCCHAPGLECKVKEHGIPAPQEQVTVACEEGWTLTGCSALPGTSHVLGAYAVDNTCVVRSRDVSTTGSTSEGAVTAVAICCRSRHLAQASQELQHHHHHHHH

T2 sequence (prodomain, as listed by the source mutant limits assumed, chain 1 of 2): as the sequence (Q8NBP7 31-152, stated change not applied, chain 1 of 2) above
T4 sequence (Q8NBP7 31-152, stated change not applied, chain 1 of 2): as above
T4 sequence (Q8NBP7 other isoform, or with tags, fused parts or gaps mutant, chain 2 of 2): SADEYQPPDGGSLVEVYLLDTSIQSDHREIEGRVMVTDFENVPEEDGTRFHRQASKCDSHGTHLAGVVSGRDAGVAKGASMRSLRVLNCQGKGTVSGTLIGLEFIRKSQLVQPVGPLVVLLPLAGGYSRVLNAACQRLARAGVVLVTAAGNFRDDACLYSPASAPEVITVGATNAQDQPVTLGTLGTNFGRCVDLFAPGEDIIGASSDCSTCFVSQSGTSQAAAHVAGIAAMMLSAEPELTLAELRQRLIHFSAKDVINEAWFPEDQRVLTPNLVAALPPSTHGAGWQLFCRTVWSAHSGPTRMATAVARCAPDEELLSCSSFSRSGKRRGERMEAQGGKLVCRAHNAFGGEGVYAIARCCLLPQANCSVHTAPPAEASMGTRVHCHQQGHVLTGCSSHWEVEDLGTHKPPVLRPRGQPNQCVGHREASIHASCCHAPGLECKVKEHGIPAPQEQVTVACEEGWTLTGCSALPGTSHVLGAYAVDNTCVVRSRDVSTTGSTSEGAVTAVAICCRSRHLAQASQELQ
T3 sequence (Q8NBP7 31-692 limits assumed): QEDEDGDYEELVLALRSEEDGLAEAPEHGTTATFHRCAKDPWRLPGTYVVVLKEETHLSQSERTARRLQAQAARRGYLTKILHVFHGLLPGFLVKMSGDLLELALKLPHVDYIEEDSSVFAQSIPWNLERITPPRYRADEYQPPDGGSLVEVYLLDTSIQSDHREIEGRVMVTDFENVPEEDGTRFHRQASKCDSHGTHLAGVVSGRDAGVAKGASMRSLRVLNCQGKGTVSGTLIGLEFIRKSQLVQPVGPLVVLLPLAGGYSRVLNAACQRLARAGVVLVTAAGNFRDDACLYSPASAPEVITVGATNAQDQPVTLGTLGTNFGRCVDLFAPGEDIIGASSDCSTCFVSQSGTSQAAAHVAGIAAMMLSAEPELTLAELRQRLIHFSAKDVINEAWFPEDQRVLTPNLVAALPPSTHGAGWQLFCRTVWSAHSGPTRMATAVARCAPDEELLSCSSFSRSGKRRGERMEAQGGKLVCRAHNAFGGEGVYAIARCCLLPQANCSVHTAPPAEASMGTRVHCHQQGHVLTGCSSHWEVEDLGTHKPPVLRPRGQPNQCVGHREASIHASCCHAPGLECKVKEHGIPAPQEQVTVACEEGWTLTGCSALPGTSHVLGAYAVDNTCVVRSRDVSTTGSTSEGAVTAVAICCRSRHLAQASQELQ
T1 sequence (Q8NBP7 other isoform, or with tags, fused parts or gaps limits assumed): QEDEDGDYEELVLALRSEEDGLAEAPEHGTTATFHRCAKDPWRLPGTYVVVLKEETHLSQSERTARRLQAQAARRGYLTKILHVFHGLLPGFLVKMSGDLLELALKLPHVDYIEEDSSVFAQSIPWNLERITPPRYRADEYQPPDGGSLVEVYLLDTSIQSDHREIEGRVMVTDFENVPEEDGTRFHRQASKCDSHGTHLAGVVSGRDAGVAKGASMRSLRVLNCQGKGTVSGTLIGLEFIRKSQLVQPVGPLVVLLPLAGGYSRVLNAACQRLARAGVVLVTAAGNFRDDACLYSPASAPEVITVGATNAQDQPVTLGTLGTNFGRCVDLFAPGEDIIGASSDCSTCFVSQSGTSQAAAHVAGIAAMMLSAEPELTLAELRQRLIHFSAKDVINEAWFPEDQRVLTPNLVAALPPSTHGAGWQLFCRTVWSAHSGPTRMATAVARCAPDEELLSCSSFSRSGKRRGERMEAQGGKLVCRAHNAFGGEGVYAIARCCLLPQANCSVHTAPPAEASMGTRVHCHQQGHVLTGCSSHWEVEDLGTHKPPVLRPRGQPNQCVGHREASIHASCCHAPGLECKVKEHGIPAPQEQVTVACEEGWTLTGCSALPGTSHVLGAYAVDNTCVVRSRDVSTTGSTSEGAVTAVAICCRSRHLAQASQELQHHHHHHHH
T5 sequence (A8T644 31-152, chain 1 of 2): as the sequence (Q8NBP7 31-152, stated change not applied, chain 1 of 2) above
T5 sequence (A8T644 other isoform, or with tags, fused parts or gaps, chain 2 of 2): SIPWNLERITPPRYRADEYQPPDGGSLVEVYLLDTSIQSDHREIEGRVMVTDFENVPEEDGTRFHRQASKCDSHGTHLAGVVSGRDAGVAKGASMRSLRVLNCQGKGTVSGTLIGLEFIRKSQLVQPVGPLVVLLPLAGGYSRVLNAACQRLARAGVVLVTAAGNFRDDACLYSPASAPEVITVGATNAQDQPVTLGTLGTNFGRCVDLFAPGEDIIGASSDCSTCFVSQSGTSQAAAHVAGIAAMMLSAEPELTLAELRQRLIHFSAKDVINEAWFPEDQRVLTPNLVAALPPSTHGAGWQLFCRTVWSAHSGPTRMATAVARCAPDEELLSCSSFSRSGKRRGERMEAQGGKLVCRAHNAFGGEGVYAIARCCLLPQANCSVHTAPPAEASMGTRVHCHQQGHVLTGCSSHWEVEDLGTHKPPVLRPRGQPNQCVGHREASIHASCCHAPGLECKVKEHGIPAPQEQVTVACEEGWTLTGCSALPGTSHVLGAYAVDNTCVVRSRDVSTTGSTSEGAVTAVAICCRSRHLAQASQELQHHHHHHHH

Binder: Ac-TVFTSWEEYLDWVGSGCRLPWNLQRIGLPC-NH2 (disulfide 17-30 (inferred), also called Pep2-8p4; Pep2-8_K9gvpep4) [Compound 19]
- concentration restoring LDLR levels on HepG2 cells to 50% (EC50) [1]: ~500 nM
- IC50 (PCSK9Δhelix [2]): 2.92 nM
- IC50 (PCSK9Δhelix [3]): 5.65 nM

Binder: Ac-WNLVRIGLLR-NH2 [Compound 53]
- fold reduction of binding affinity on elimination of Pro4 (PCSK9Δhelix [4]): 10 fold

Binder: Ac-TVFTSWEEYLDWVGSGDLMPWNLVRIGLLR-NH2 (also called Pep2-8p7; Pep2-8_K9gvpep7) [Compound 20]
- IC50 (PCSK9Δhelix [2]): 1.75 nM
- IC50 (PCSK9Δhelix [3]): 5.99 nM

Binder: TAFTSWEEYLDWVGSGVLWNHSRI [SEQ ID NO 308]
- ELISA [5]: 2.74
- s/n ratio [5]: 24.9
- ELISA (PCSK9Δhelix [6]): 2.82
- s/n ratio (PCSK9Δhelix [6]): 26.4
- ELISA [7]: 3
- s/n ratio [7]: 29.7
- ELISA (PCSK9Δhelix [8]): 2.91
- s/n ratio (PCSK9Δhelix [8]): 31.3

Binder: Ac-WNLV[hArg]IGLLR-NH2 [Compound 192]
- fold improvement of binding affinity by homo-arginine substitution (against Compound 53) (PCSK9Δhelix [9]): 14 fold

B1: Compound 2 (peptide)
peptide: Ac-TVFTSWEEYLDWVGSGCWNLKRIGSQGC-NH2
modifications: disulfide 17-28
SMILES: CC[C@H](C)[C@@H]1NC(=O)[C@H](CCCNC(=N)N)NC(=O)[C@H](CCCCN)NC(=O)[C@H](CC(C)C)NC(=O)[C@H](CC(N)=O)NC(=O)[C@H](Cc2c[nH]c3ccccc23)NC(=O)[C@@H](NC(=O)CNC(=O)[C@H](CO)NC(=O)CNC(=O)[C@@H](NC(=O)[C@H](Cc2c[nH]c3ccccc23)NC(=O)[C@H](CC(=O)O)NC(=O)[C@H](CC(C)C)NC(=O)[C@H](Cc2ccc(O)cc2)NC(=O)[C@H](CCC(=O)O)NC(=O)[C@H](CCC(=O)O)NC(=O)[C@H](Cc2c[nH]c3ccccc23)NC(=O)[C@H](CO)NC(=O)[C@@H](NC(=O)[C@H](Cc2ccccc2)NC(=O)[C@@H](NC(=O)[C@@H](NC(C)=O)[C@@H](C)O)C(C)C)[C@@H](C)O)C(C)C)CSSC[C@@H](C(N)=O)NC(=O)CNC(=O)[C@H](CCC(N)=O)NC(=O)[C@H](CO)NC(=O)CNC1=O
notes: Disulfide C17-C28
- IC50 [10]: 110 nM
- IC50 (PCSK9Δhelix [11]): 4 nM
- Kd [12]: 30.3 nM
- Kd (PCSK9Δhelix [13]): 1.87 nM

B2: Compound 23 (peptide)
peptide: Ac-SPCRVGYTPC-NH2
modifications: disulfide 3-10
SMILES: CC(=O)N[C@@H](CO)C(=O)N1CCC[C@H]1C(=O)N[C@H]1CSSC[C@@H](C(N)=O)NC(=O)[C@@H]2CCCN2C(=O)[C@H]([C@@H](C)O)NC(=O)[C@H](Cc2ccc(O)cc2)NC(=O)CNC(=O)[C@H](C(C)C)NC(=O)[C@H](CCCNC(=N)N)NC1=O
notes: Two Cys
- Kd [12]: 5740 nM
- Kd (PCSK9Δhelix [13]): 754 nM

B3: Compound 228 (peptide)
peptide: Ac-SFAFPGWNLV[hArg]IGLLR-NH2
SMILES: CC[C@H](C)[C@H](NC(=O)[C@H](CCCCNC(=N)N)NC(=O)[C@@H](NC(=O)[C@H](CC(C)C)NC(=O)[C@H](CC(N)=O)NC(=O)[C@H](Cc1c[nH]c2ccccc12)NC(=O)CNC(=O)[C@@H]1CCCN1C(=O)[C@H](Cc1ccccc1)NC(=O)[C@H](C)NC(=O)[C@H](Cc1ccccc1)NC(=O)[C@H](CO)NC(C)=O)C(C)C)C(=O)NCC(=O)N[C@@H](CC(C)C)C(=O)N[C@@H](CC(C)C)C(=O)N[C@@H](CCCNC(=N)N)C(N)=O
- Kd [14]: 2800 nM

B4: Compound 227 (peptide)
peptide: Ac-ESFPGWNLV[hArg]IGLLR-NH2
SMILES: CC[C@H](C)[C@H](NC(=O)[C@H](CCCCNC(=N)N)NC(=O)[C@@H](NC(=O)[C@H](CC(C)C)NC(=O)[C@H](CC(N)=O)NC(=O)[C@H](Cc1c[nH]c2ccccc12)NC(=O)CNC(=O)[C@@H]1CCCN1C(=O)[C@H](Cc1ccccc1)NC(=O)[C@H](CO)NC(=O)[C@H](CCC(=O)O)NC(C)=O)C(C)C)C(=O)NCC(=O)N[C@@H](CC(C)C)C(=O)N[C@@H](CC(C)C)C(=O)N[C@@H](CCCNC(=N)N)C(N)=O
- fold lower inhibitory activity against Compound 229 [15]: ~3 fold

Binder: Ac-SGCFI[Hyp′]WNLQRIGLLC-NH2 (disulfide 3-16 (inferred), Has two Cys (positions 3 and 16)) [Compound 242: Ac-SG-CFI(Hyp)WNLQRIGLLC-NH2]
- IC50 [16]: ≥ 50000 nM
- IC50 [17]: 31000 nM
